Paper PMC4265319

Columns and labels:
[1] = target: T1, KdpE (Staphylococcus aureus) (UniProt Q2FWH6); experiment: EMSA; conditions: EMSA 25 C, 20 min, 20 ul, 1x binding buffer, 2.5% glycerol, 50 ng/ml poly(dI-dC), 0.05% NP-40; CymR/KdpE buffer: 20 mM Tris-HCl pH 7.5, 10 mM MgCl2, 100 mM …
T1 sequence: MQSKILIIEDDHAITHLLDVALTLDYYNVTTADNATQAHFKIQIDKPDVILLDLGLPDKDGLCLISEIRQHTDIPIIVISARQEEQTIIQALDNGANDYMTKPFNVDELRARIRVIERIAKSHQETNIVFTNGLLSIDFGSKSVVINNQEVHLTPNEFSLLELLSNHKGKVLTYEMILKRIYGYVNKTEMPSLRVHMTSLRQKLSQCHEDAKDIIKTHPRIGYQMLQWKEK

[2] = target: T2, LacR (Staphylococcus aureus) (UniProt Q5HE08); experiment: EMSA; conditions: EMSA 25 C, 20 min, 20 ul, 1x binding buffer, 2.5% glycerol, 50 ng/ml poly(dI-dC), 0.05% NP-40; CymR/KdpE buffer: 20 mM Tris-HCl pH 7.5, 10 mM MgCl2, 100 mM …
T2 sequence: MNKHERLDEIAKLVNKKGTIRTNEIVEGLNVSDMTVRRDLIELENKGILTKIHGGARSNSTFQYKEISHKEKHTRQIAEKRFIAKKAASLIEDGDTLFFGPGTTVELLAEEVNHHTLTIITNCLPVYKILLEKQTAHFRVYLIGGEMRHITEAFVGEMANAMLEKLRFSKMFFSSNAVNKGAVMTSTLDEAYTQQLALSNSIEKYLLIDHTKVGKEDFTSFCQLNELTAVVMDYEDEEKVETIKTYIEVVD

Row | Sequence | binding [1] | binding [2]
1 | GACATAACCTTCACCTCGATAGCAATATCATAATATTCTTCACAATTAAATGCTATAAAATTTATTTCTGCATACACATCTTAATGATTTCTTAATAACTAAGTTTGAAAATTAATATTTCTCTCATAAACAAGTTGTTACGATGTTGTTGTGTTGTAAGGAGGTTATGGCAATGCTCATCGTTTTATTACTGGTAGTTATTGCATTAGTTTTGTATTTATTTTATGCCTTAATTCGTAGTGAAAAATTTTAGAAATATATTAAGTGAGGGTTATCATGG (double strand) [kdpFABC promoter] | binds | 
2 | GTAATCCATTGTTACCTCCCGATTACAAATTTTGTTCTATCTACTATTTAGCAAAGTAATAATACATCATATCACATTAAATTAATTACTTATGTCTTATATTTAACACTTAATTTAGCGATTACGCAAATGAATGATTTTTCTAAATATTTTATTCTAACTTTATCCGGAAATATTTGTTATACGTATAACTTGGAGAATGACTACTTGAAATTTAATGACGTATACAACAAACACCAC (double strand) [sigS promoter] | binds | no binding
